From paper PMC11414716, “Structural insights into polyamine spermidine uptake by the ABC transporter PotD-PotABC” (Science Advances, 2024)

What was measured:
[1] = molecular target: T1, PotD (wild type), spermidine-binding protein (E. coli K12, UniProt P0AFK9 24-348); experiment: cryo-EM structure; PotD-PotABC E173Q complex formed with Spd, ATP and Mg2+, in LMNG; Spd-bound pretranslocation state (3.1 Å) and ATP-bound translocation intermediate state (3 Å; dataset 2 with 3 mM Fos-Choline-8); conditions: both partners purified
T1 construct: expressed from the entire potABCD operon; Hexahistidine tag is called noncleavable; also called PoD wild-type; source: E. coli C41, expressed from the potABCD operon with the tag on PotD; purified (Ni-NTA, Superose 6 SEC); in lysate for the co-purification attempt; not shown: His6, C-terminal, kept
T1 sequence (looked up): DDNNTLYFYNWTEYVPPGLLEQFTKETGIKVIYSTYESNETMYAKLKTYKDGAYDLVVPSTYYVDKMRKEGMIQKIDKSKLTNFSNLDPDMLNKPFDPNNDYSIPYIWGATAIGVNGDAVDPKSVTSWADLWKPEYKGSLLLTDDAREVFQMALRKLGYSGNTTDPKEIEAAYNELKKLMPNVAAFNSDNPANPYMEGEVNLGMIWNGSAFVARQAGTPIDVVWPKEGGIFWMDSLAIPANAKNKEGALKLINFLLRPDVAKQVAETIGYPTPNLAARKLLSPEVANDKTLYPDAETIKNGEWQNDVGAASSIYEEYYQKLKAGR

[2] = molecular target: the molecule itself; experiment: cryo-EM structure; wild-type PotABC complex reconstituted into MSP1E3D1/asolectin nanodiscs, with ATP, Mg2+ and Spd; map at 3.5 Å
[3] = molecular target: the molecule itself; experiment: cryo-EM structure; PotD-PotABC E173Q complex formed with Spd, ATP and Mg2+, in LMNG; Spd-bound pretranslocation state (3.1 Å) and ATP-bound translocation intermediate state (3 Å; dataset 2 with 3 mM Fos-Choline-8)

B1: PotB (natural protein, E. coli K12, UniProt P0AFK4 1-275, looked up)
chain: MIVTIVGWLVLFVFLPNLMIIGTSFLTRDDASFVKMVFTLDNYTRLLDPLYFEVLLHSLNMALIATLACLVLGYPFAWFLAKLPHKVRPLLLFLLIVPFWTNSLIRIYGLKIFLSTKGYLNEFLLWLGVIDTPIRIMFTPSAVIIGLVYILLPFMVMPLYSSIEKLDKPLLEAARDLGASKLQTFIRIIIPLTMPGIIAGCLLVMLPAMGLFYVSDLMGGAKNLLIGNVIKVQFLNIRDWPFGAATSITLTIVMGLMLLVYWRASRLLNKKVELE
notes: PotB, transmembrane subunit, E. coli K12; the entire potABCD operon was cloned; Subunit of the PotABC complexes, written alone for the pairs within the solved complexes; source: E. coli C41, co-expressed and purified as part of the PotABC complex (Ni-NTA, SEC in LMNG; wild-type complex also in nanodiscs)
B1: binds [1].

B2: PotC (natural protein, E. coli K12, UniProt P0AFK6 1-264, looked up)
chain: MIGRLLRGGFMTAIYAYLYIPIIILIVNSFNSSRFGINWQGFTTKWYSLLMNNDSLLQAAQHSLTMAVFSATFATLIGSLTAVALYRYRFRGKPFVSGMLFVVMMSPDIVMAISLLVLFMLLGIQLGFWSLLFSHITFCLPFVVVTVYSRLKGFDVRMLEAAKDLGASEFTILRKIILPLAMPAVAAGWVLSFTLSMDDVVVSSFVTGPSYEILPLKIYSMVKVGVSPEVNALATILLVLSLVMVIASQLIARDKTKGNTGDVK
notes: PotC, transmembrane subunit, E. coli K12; the entire potABCD operon was cloned; Subunit of the PotABC complexes, written alone for the pairs within the solved complexes; That the tag sits on PotC is surmised; source: E. coli C41, co-expressed and purified as part of the PotABC complex (Ni-NTA, SEC in LMNG; wild-type complex also in nanodiscs); not shown: His6 (inferred on PotC: C-terminal tag of …)
B2: binds [1].

B3: PotA (wild type) (natural protein, E. coli K12, UniProt P69874 1-378, looked up)
chain: MGQSKKLNKQPSSLSPLVQLAGIRKCFDGKEVIPQLDLTINNGEFLTLLGPSGCGKTTVLRLIAGLETVDSGRIMLDNEDITHVPAENRYVNTVFQSYALFPHMTVFENVAFGLRMQKTPAAEITPRVMEALRMVQLETFAQRKPHQLSGGQQQRVAIARAVVNKPRLLLLDESLSALDYKLRKQMQNELKALQRKLGITFVFVTHDQEEALTMSDRIVVMRDGRIEQDGTPREIYEEPKNLFVAGFIGEINMFNATVIERLDEQRVRANVEGRECNIYVNFAVEPGQKLHVLLRPEDLRVEEINDDNHAEGLIGYVRERNYKGMTLESVVELENGKMVMVSEFFNEDDPDFDHSLDQKMAINWVESWEVVLADEEHK
notes: PotA, cytosolic ATPase subunit, E. coli K12; the entire potABCD operon was cloned; Subunit of the wild-type PotABC complex solved in nanodiscs
B3: binds [2].

B4: PotA E173Q (natural protein, E. coli K12, UniProt P69874 1-378, looked up)
chain: MGQSKKLNKQPSSLSPLVQLAGIRKCFDGKEVIPQLDLTINNGEFLTLLGPSGCGKTTVLRLIAGLETVDSGRIMLDNEDITHVPAENRYVNTVFQSYALFPHMTVFENVAFGLRMQKTPAAEITPRVMEALRMVQLETFAQRKPHQLSGGQQQRVAIARAVVNKPRLLLLDQSLSALDYKLRKQMQNELKALQRKLGITFVFVTHDQEEALTMSDRIVVMRDGRIEQDGTPREIYEEPKNLFVAGFIGEINMFNATVIERLDEQRVRANVEGRECNIYVNFAVEPGQKLHVLLRPEDLRVEEINDDNHAEGLIGYVRERNYKGMTLESVVELENGKMVMVSEFFNEDDPDFDHSLDQKMAINWVESWEVVLADEEHK
notes: PotA, cytosolic ATPase subunit (NBD and regulatory domain), E. coli K12; the entire potABCD operon was cloned; Subunit of m1, written alone for the pairs within the solved complexes; source: E. coli C41, co-expressed and purified as part of the PotABC E173Q complex (Ni-NTA, SEC in LMNG)
B4 was tested, and the “stoichiometry N” value [3] was 2.
